The domain aggregation screens of Martell et al. (2025)

experiment: soluble fraction after stress (log2 fold change); higher = more stays soluble; pooled small domains, quantitative proteomics; conditions: stress: pH 4
Procedure, shortened: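 Custom libraries of small protein domains were pooled and exposed to pH 4. High-throughput quantitative proteomics then measured the log2 fold change in the amount of each domain still soluble, with higher values meaning more stayed soluble. This soluble-fraction fold change stands for aggregation propensity.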

Compared with “HMDVLSPEEWIEFRTAYNNNRYISQYGSKGATIEDDYATRLAMIGGKESYYFLNDPRWTEPGYGNLK”, “HMDAVSYTQFMQDAKAGRIKKVIVHQSGILDVTTTEGRRFNLTSPGDLWMVGDLVKDGVDVVGAP” is higher in “soluble fraction (log2)” value: -1.45 for the first, 0.139 for the second.

Going from “HMQISDSGELEKIVLQVIEENPKPAEQVRSGNEKAIGALVGGVMKATQGRADGGEVNRLLRQHLGL” to “HMATETMGMIIRRLRREHGLTQEELAASIGVTAQAVSKWEKDLGMPDISQIVPLAGAFNVRTDVLFGLE”, the “soluble fraction (log2)” value falls from 0.23 to -0.672.

First: HMWMTAQDFRNSSLPWSATTSYNEGQSVRVVDGSNTYYYIAIVKTQPGQSPTTHPTSWREVDA
Second: HMTIENTDTFLETLWEQVQRASVDENGIITSRVLIWDEGTKLDEILSWFDKRHSLGALYLQFG
The “soluble fraction (log2)” value of the first is higher: 0.311 for the first, -1.74 for the second.

First: HMTHPQVEAYLDDLARMLADIDPGERDDILASVREHLDAEIAAGHGSDAVVNATLLRLGPPEQVAAAARTN
Second: HMAREQISVSQMVRDVRDGQVKNIEVLGQELRLSYADGSQKVTRKEEGQQALEILFASDIDLAALDLEVQ
The “soluble fraction (log2)” value of the first is higher: -0.899 for the first, -1.16 for the second.

First: HMKELLQEMIMDILRAIASPNIDIKRKTLDLVLDLITPRNIDNVTGMLKTEVVKSQSENTSDVG
Second: HMDYTPIEVKDLPQAIQDALTKNFSEYTVKSAAYQEDEDGVKIYQVTVVDEEGTEANIFFTEKGE
The “soluble fraction (log2)” value of the first is lower: -0.572 for the first, 0.00729 for the second.

“HMTTIKLTQEDVEKIKSLPKRTFLIGNLQQTGLYDEKTRRFYYLDANGEWNGRLAIINTPPPPPPPP” and “HMPRYSGMFAAWLHKALARMGKSMSDSARSAFTERVELDYSSANNELQKLSLLVGDRKVITEADVMRAIG” are within 0.2 log units of each other in “soluble fraction (log2)” value: -0.0951 for the first, -0.0455 for the second.

Going from “HMKVEFTPAYLKKFKANKNAWKFYEAQTNTYKKQSAWYVISAKQEETRLRRLDLLIYDSENGIHIKPLRR” to “HMYAPKIETIQVPQDKIREVIGTGGKVIREIVETTGAKIDIGDTGLIKVASSDGEAIRAALDWINSIVAE”, the “soluble fraction (log2)” value falls from 0.211 to -0.758.

Compared with “HMPLTAASLQTYLRGVDYPASKQDLIAHARKSDAPEDAITVLEQYSEQTYRSAADVSAEFGS”, “HMNGDYFEYRYAVNGSRSTPPSLSKTSRNPSGWSTTVPTVGNLQYLWFTVAKINGETNSLIQNWSTPARQT” is higher in “soluble fraction (log2)” value: -0.156 for the first, 0.143 for the second.

First: HMAESTRSRILNAAIEMMETGGESSVRLSAIAEALGIKEPSIYHHFTNRTELVNAAYIEWYW
Second: HMETPEIPGLTPRQVEIMLLVGKGYSNKEIARFLTISPETVKTHLKEVFLRFGLRNRVEAIDFTRQNGL
The “soluble fraction (log2)” value of the first is lower: -0.63 for the first, -0.358 for the second.

First: HMYAMTAEDWIVSGNRKYINDDLQGAIADYTKAIEIDPNYAAIYLVRGKAKYELKNYQGAIEDYTKAIE
Second: HMEGTAAAVALKGLMEQSGVDLREVMAAVESRGYYPKGTPFENYDPAFVSGVLVGAWDQVYKMILDQRPIP
The “soluble fraction (log2)” value of the first is lower: -1.48 for the first, -1.1 for the second.

First: HMDADRILHKTLKPRELEIYQLIKAYLEEHSQIANAKVQEISGLSEATTRRYLNIFVEFGLLKTS
Second: HMADPAVLIAELFRAMPEKRFSVKNLISATGAETREQKDYVREVVHSLSREGMIEQVAEGKYRLSASE
The “soluble fraction (log2)” value of the first is lower: -0.164 for the first, 0.241 for the second.

First: HMPESETIMVDVKGAVQSEGVYELPSTARVNDAIEAAGGFSDQADKKSVNLAQKLSDEAVVYVASQGENV
Second: HMIPDMSLELAMSEQTSKGDLYGDLPNDKLALMFNAISKKVPHTDDHKRKMVAIQTILESRAS
The “soluble fraction (log2)” value of the first is lower: -0.28 for the first, 0.0127 for the second.

First: HMYEHLKALRESLGMTQAEFGESVGVAKSTYNNYEIGARDPKSDFWIAVAQRYGVTIDYLMGFSDDPKKT
Second: HMDGQPLSERQQEILRWVAEGLSNREIGERLNITPNTVRDHLSEVMRRLEVSNRTSAVSTAFHLGLLP
The “soluble fraction (log2)” value of the first is higher: 0.253 for the first, -0.178 for the second.

Going from “HMILKNVPSNLVNQRLDKVATVLFQTYSRTQIKKWILEGRLLVNGEISNPKDLVNENDEIEINPI” to “HMDLQNIQNQLNTEFAKSDTRIIFWFDDKGEYEDEVSELQLGDVKLHILDGLNWFYSKYLLNEA”, the “soluble fraction (log2)” value falls from 0.3 to -0.467.

First: HMSDPSAQADALFNEGKTAEAFNVLLRLIEDSPEDQREDYRVRLLDLFRIAGNTPEVKAARRRLSALLM
Second: HMIGKDLLGYEVFSESGDLVGILKDVMWLPHSDVYVITNGGKELLIPVIPEVVKGINHEQGVIVISPM
The “soluble fraction (log2)” value of the first is higher: -0.101 for the first, -1.04 for the second.

“HMRSIMAVSNYRHKKILEMVYQRKSVSADELAAEFGVSKITIRRDLDTLAMDKLLERTRGGAISISD” and “HMGDLEEAVKDFSEAIRLNDSWAEAYANRAVVYAEQGDAAQSDQDAEKARLLGVDQNRLNEMLNAVNS” are within 0.2 log units of each other in “soluble fraction (log2)” value: -0.128 for the first, -0.21 for the second.

Going from “HMHSQVFTDPDKAKNAVVKLGAPLVVKADGLALGKGVIIAQNPQAAKEAVASVGSSGISSISVT” to “HMDKSHYEELGVSRTATHAEIRRAYRHLMRTLHPDSNDGRVDAVRITKVNEAWNVLSQSSSRNAYDKSQV”, the “soluble fraction (log2)” value falls from 0.22 to -0.0249.

Compared with “HMTKLLSALQADKFAKKLANDTNFGSNFARMGESAMDFTNRLVEELQRDEGKVANYMPYLTKLGF”, “HMETGEDSLRRYFNSLPGSASKREILEDNPTVSQRTTERILQKLQAEGFIEKVGAARATRYRKVKQ” is higher in “soluble fraction (log2)” value: -0.305 for the first, 0.27 for the second.

Going from “HMVSSEGLASGIERMLVEFGLETDKGRRFAMWSLLYMLGSAPDLDVAFKDPRDREAARTFMDLLDQANA” to “HMKTKMTPELTTVIEAQIQKEWSPEQISGWLKKTHPVSVSHQRIYQHIQADRQQGGTLHQHLRQAK”, the “soluble fraction (log2)” value rises from -0.99 to -0.2.

Compared with “HMDLMQRVIIVRPVMQGDYLTRAHLGLQTLSRNGGGGFTDIDDLVGRRAKKSLRAGLVVHNRHL”, “HMDVIDDAQAMEIALEDAGLSMDDLDRYELELHTKRSELVYSIELKSGTEEYEYDLRAADGTILKRDTDF” is lower in “soluble fraction (log2)” value: 0.124 for the first, -0.799 for the second.

First: HMKTVKPSQIPYSEFLKLVETDKINDVSMVGRNIIGHLDDGSKFKTYTPPNDPTLIEKLSSHNIVINAAPE
Second: HMEDLDKIISAYLDENPQIVSDYGKGNKKAVNSAIGFVMKSTGGKYSSSDIVDAVRSMIVSISV
The “soluble fraction (log2)” value of the first is higher: 0.134 for the first, -0.254 for the second.

“HMVVPRSFKYEVLAHGGWAGNAQRYQTKEEALHAGLALSRRWTAVEDYRAVPSDDLPNQPAL” and “HMSVKTIRKTEFAKRLYSLMLEKNWNQSDLARASGMGRDSVSQYIRANNTPSPQNLKKLAEALGVEPVELY” are within 0.2 log units of each other in “soluble fraction (log2)” value: 0.127 for the first, 0.0509 for the second.

“HMDNEVTIAVQVNGKLRDKLIVALDTPNEKIEQLALALPKVIQNTSGLTVRKVIVIPNRLVNIVA” and “HMDRYAVRAEELAAALAQYHRHVGVYPENLEDLIAPTGPRGYRGPYLSELPTNPSTSKPDWGYDPATGRVS” are within 0.2 log units of each other in “soluble fraction (log2)” value: 0.123 for the first, 0.159 for the second.

First: HMRAVFEQLRIGQTLAGVVKAQEKGFSLVEIDGQTVAMRLPHPAAVGDTLRLRFAGHMPQAVFLLES
Second: HMDISPAAKQRLALIQPLLEKNAEAITDRKLRNAVAKDIANNQNTTVRRVLRLYYRYLATGQVM
The “soluble fraction (log2)” value of the first is lower: -0.178 for the first, 0.158 for the second.

Compared with “HMYINVQNARTIASFRSSLWRMHRDFTNQGYITADGLKTFLEMGKLYEDAGGNDIYHSKLLPEITALEIKY”, “HMKDPSFELMSVAESFYRSGNVDHAVYALEKYLEVYADGDYTDRAHDLLSQARKGLTYPHGYPPLQI” is lower in “soluble fraction (log2)” value: -0.421 for the first, -1.33 for the second.

First: HMVSKQVTVNGIQYYQYTVQKSEGFYAISTKFGVTQDDIILANPSTKEGLRVGQEILIPIKT
Second: HMNVNSQQINDLEKSIQKFFDKDIKNYLNQNLSNDRMISKNEIDKIILLYYGSDKEPTLDEIKSIFN
The “soluble fraction (log2)” value of the first is higher: -0.0976 for the first, -1.19 for the second.

“HMSQLYINATDDGWVIGNLPADAREVLLTTLGGQVVARYHVTAPSLRVKAPRKGVYIVSVETA” and “HMPEVTMSYSARNQVVSFSKATQYEIVDEFGTVVLRGVGNQATLRYLSRGDYFVNFGAGTEVLKK” are within 0.2 log units of each other in “soluble fraction (log2)” value: -0.0877 for the first, 0.089 for the second.

Going from “HMESDRVAHVVAPGETLFSISGKYGIGMGELVAANPVLESRPPRTGDTLLIRLPENPLPAETDAETLS” to “HMVPADVQHLRDIVDTMTEKQQLVYKLHVLEGYTFTEIAKLMGTSIPNVKKHYDKAILFIKNNF”, the “soluble fraction (log2)” value rises from -0.858 to -0.165.

First: HMLERPLKLKSHYVSAINEKVAVQFQAGEERKSIMGTLTEVNQDTIVIDDRGSVTEIPFKSIIRAKTVF
Second: HMEYSTLEIYSQTKKDLIEKSPHLNKVVYDKDDGYIYLLSFEKEDDLTSFKSNIENDSDIKRIEANV
The “soluble fraction (log2)” value of the first is higher: -0.163 for the first, -0.91 for the second.

First: HMRSRHYRFSTPFLDRLIAEIDWNSDNALSIFNQKLVHFDFLKYFSAIQPGSIVEIENLNFIWTGKRLEAH
Second: HMKGWPDREQAEKIWQQGIDYAIEHHTMSPQIVKEYIFHTQGIARSAALIAARLPDMDTEKAYVLGLLHD
The “soluble fraction (log2)” value of the first is lower: -0.71 for the first, 0.0199 for the second.

Going from “HMNDAEEKAEAIEGVKNFMANMEKTDIDFKSKESVLLEQVEEIRKNYPVAQWPVIVKQLYNNIGRL” to “HMKNFAPVWGEEGAEFGKEVDTGFRLRIVEKEKDVNDLFEVIQKHTIQSQWKPGSTGTESIYKRI”, the “soluble fraction (log2)” value falls from -0.257 to -1.35.

Compared with “HMSEYEYALHEFGITKKQSQRIFDRLSIADLEERINAIQTTLKQRSDIDNPAAYAWTVLNAE”, “HMSSNLTVFTRNNAIIVNSDVVRKLNVFAVDGRLVRSVDLSVGENVINNISRGMYLIDKQKVVV” is higher in “soluble fraction (log2)” value: -0.767 for the first, ≥ 0.43 for the second.

Going from “HMVERQVTVPNLTGLGVADAQRLAQSMELDIEVLGEQESTDARPGAVLQQTPGAGTRAAAGSVVSVLV” to “HMNEQKVSSLLTPRQLAFIDEYLIDFNGAQAAIRAGYSHKTAGPQAARLLVNVNISRMIAERIEARNK”, the “soluble fraction (log2)” value falls from -0.179 to -1.22.

Going from “HMERLLVSKINGMITEAKVSVEDVVKVVASRGHYPEVKSIDEYPDDFLSRWVVPNFKKIVEMINANKEA” to “HMSELTKEIGKRIHDFRKSRGLNQEELARLIYKSKATLSKYEKGEIAIDLDTLKQLALALHVRMEQLLPPT”, the “soluble fraction (log2)” value rises from 0.239 to ≥ 0.43.

Going from “HMTTMTTGQRIAAKRKEQGLSQENLGEQLGVSRQAIYKWESDASLPDIDKLIALSRLFGVSTDYLLLE” to “HMARSVAEFVERGRSGGSLERPKLQRMLEYIQDRPVDFVIVHKIDRLARNRADDAAITKTIRGAGAYLVST”, the “soluble fraction (log2)” value rises from -1.68 to -0.103.

Compared with “HMELGRQDSAQLGRWAAGILAKNGKKITGRTMEFFLSRTGDDMENISSELEKLISYTLGREVITEEDIEAV”, “HMTASSYMGMQLGRLEELLKKEVLSLSEKTELKDLISDFDKIPEVVSPKIIGRYLQLKNQHFAKINA” is higher in “soluble fraction (log2)” value: -0.757 for the first, -0.2 for the second.

Going from “HMKRANGTGSVFKLNGKRRNPWVARVTQGFDDKGRQKYVNLGYYKTKREAENELLSYNSNPYDAN” to “HMSHLTKKQEEVLLFIRDYYEEEGRSPSYSDIQHHFGLKSKSSVQDYIGYLKKAGFLQKSVGSRAIELV”, the “soluble fraction (log2)” value rises from -0.0271 to ≥ 0.43.

Going from “HMPELSNNLDRDKVALKNFNESLKDGLTPAEAYANHLTNVSKAAQEAARQSNGLPVDIDKYHNSQLAASMA” to “HMKNNITFSEFLHEVDNGRVIKVNIQGNNITGILADGKSFNTYTPNDPSLIEKLTSKGVSISATPI”, the “soluble fraction (log2)” value falls from ≥ 0.43 to 0.127.
